Molecular target: the molecule itself
Assay: crystal structure; dimeric HT cyt c552 without a His-tag obtained from E. coli by freeze-thaw, purified; sitting-drop vapor diffusion at room temperature; 1.8 Å

B1: Hydrogenobacter thermophilus cytochrome c552, wild type, without a His-tag (holo protein) (natural protein, UniProt P15452 19-98, looked up)
chain: NEQLAKQKGCMACHDLKAKKVGPAYADVAKKYAGRKDAVDYLAGKIKKGGSGVWGSVPMPPQNVTDAEAKQLAQWILSIK
modifications: heme c attached (holo protein)
stoichiometry N: 2

Source: article PMC4738263 (Scientific Reports, 2016)
